The results in this text go back to publication doi:10.1101/2025.03.26.645438.

The test concerns the target Human GLP1R protein (human) (UniProt P43220).

Chain of Human GLP1R protein (human) (P43220 24-463): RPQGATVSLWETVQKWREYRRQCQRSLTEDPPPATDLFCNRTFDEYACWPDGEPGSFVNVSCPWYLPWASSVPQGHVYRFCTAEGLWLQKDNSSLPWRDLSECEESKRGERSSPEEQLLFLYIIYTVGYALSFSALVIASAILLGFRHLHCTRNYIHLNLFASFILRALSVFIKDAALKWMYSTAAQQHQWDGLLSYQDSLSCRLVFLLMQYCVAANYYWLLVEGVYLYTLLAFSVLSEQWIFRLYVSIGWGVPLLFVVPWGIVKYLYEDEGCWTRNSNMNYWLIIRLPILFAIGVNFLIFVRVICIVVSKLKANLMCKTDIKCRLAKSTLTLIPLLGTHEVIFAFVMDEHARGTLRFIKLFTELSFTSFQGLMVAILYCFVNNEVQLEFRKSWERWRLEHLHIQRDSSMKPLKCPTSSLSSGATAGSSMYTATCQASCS

In turn, Semaglutide (peptide) gave a cAMP accumulation (HTRF) in HEK293 cells stably expressing human GLP-1R, EC50 of 19 pM.
